This note sets out measurements from publication PMC10881151 (Molecular Biology of the Cell, 2024).

The data set “AUC” concerns the molecule itself. The data set is described as follows: AUC.
For data set [1], the target named is T1, actin filaments (rabbit skeletal muscle actin) (rabbit, UniProt P68135 1-377). Kind of data set: co-sedimentation.
In data set [2] the target is T1, actin filaments (rabbit skeletal muscle …). Kind of data set: co-sedimentation. The source holds these as a separate data set.

Where two headings read alike, the source gives them in different places.

B1: Drp1-WT (full-length human DRP1 isoform 3) (enzyme, UniProt O00429-4 1-699, looked up)
chain: MEALIPVINKLQDVFNTVGADIIQLPQIVVVGTQSSGKSSVLESLVGRDLLPRGTGIVTRRPLILQLVHVSQEDKRKTTGEENGVEAEEWGKFLHTKNKLYTDFDEIRQEIENETERISGNNKGVSPEPIHLKIFSPNVVNLTLVDLPGMTKVPVGDQPKDIELQIRELILRFISNPNSIILAVTAANTDMATSEALKISREVDPDGRRTLAVITKLDLMDAGTDAMDVLMGRVIPVKLGIIGVVNRSQLDINNKKSVTDSIRDEYAFLQKKYPSLANRNGTKYLARTLNRLLMHHIRDCLPELKTRINVLAAQYQSLLNSYGEPVDDKSATLLQLITKFATEYCNTIEGTAKYIETSELCGGARICYIFHETFGRTLESVDPLGGLNTIDILTAIRNATGPRPALFVPEVSFELLVKRQIKRLEEPSLRCVELVHEEMQRIIQHCSNYSTQELLRFPKLHDAIVEVVTCLLRKRLPVTNEMVHNLVAIELAYINTKHPDFADACGLMNNNIEEQRRNRLARELPSAVSRDKVASGGGGVGDGVQEPTTGNWRGMLKTSKAEELLAEEKSKPIPIMPASPQKGHAVNLLDVPVPVARKLSAREQRDCEVIERLIKSYFLIVRKNIQDSVPKAVMHFLVNHVKDTLQSELVGQLYKSSLLDDLLTESEDMAQRRKEAADMLKALQGASQIIAEIRETHLW
The stoichiometry N is a count of units in the complex or per binding partner. Broadly, the Kd is the free concentration of one partner at which half of the binding sites on the other are occupied at equilibrium, for simple one-to-one binding. Turning to B1, in the data set “AUC”, the “stoichiometry N” value was found to be 2. The Kd was 1700 nM in data set [1] and 1200 nM in data set [2].
